Measured values reported in patent US20230002480A1.

Key:
Assay in all cases: cell-based or functional assay
[1] = target: HIV-1 Env of pseudovirus TRO.11 (HIV-1)
[2] = target: HIV-1 Env of pseudovirus CNE17 (HIV-1)
[3] = target: HIV-1 Env of pseudovirus HIV-001428-2.42 (HIV-1)
[4] = target: HIV-1 Env of pseudovirus 1012_11_TC21_3257 (HIV-1)
[5] = target: HIV-1 Env of pseudovirus 1394C9G1(Rev-) (HIV-1)
[6] = target: HIV-1 Env of pseudovirus Q842.d12 (HIV-1)
[7] = target: HIV-1 Env of pseudovirus 7030102001E5(Rev-) (HIV-1)
[8] = target: HIV-1 Env of pseudovirus SC05_8C11_2344 (HIV-1)
[9] = target: HIV-1 Env of pseudovirus QH0692.42 (HIV-1)
[10] = target: HIV-1 Env of pseudovirus HIV-16845-2.22 (HIV-1)
[11] = target: HIV-1 Env of pseudovirus CNE21 (HIV-1)
[12] = target: HIV-1 Env of pseudovirus REJO4541.67 (HIV-1)
[13] = target: HIV-1 Env of pseudovirus 6244_13_B5_4576 (HIV-1)
[14] = target: HIV-1 Env of pseudovirus Ce2060_G9 (HIV-1)
[15] = target: HIV-1 Env of pseudovirus Du172.17 (HIV-1)
[16] = target: HIV-1 Env of pseudovirus THRO4156.18 (HIV-1)
[17] = target: HIV-1 Env of pseudovirus ZM214M.PL15 (HIV-1)
[18] = target: HIV-1 Env of pseudovirus CNE30 (HIV-1)
[19] = target: HIV-1 Env of pseudovirus 1006_11_C3_1601 (HIV-1)
[20] = target: HIV-1 Env of pseudovirus Du422.1 (HIV-1)

## N49P9 (antibody)
[1]
  IC50: 0.044 µg/mL
  IC80: 0.177 µg/mL
  MPI: 100
[2]
  IC50: 0.364 µg/mL
  IC80: 1.7 µg/mL
  MPI: 100
[3]
  IC50: 0.022 µg/mL
  IC80: 0.106 µg/mL
  MPI: 99
[4]
  IC50: 0.194 µg/mL
  IC80: 0.591 µg/mL
  MPI: 100
[5]
  IC50: > 50 µg/mL
  IC80: > 50 µg/mL
  MPI: 40
[6]
  IC50: 0.019 µg/mL
  IC80: 0.057 µg/mL
  MPI: 100
[7]
  IC50: 0.453 µg/mL
  IC80: 2.03 µg/mL
  MPI: 100
[8]
  IC50: 0.473 µg/mL
  IC80: 1.61 µg/mL
  MPI: 100
[9]
  IC50: 0.352 µg/mL
  IC80: 1.21 µg/mL
  MPI: 100
[10]
  IC50: 1.09 µg/mL
  IC80: 9.96 µg/mL
  MPI: 98
[11]
  IC50: > 50 µg/mL
  IC80: > 50 µg/mL
  MPI: 36
[12]
  IC50: 0.071 µg/mL
  IC80: 0.291 µg/mL
  MPI: 100
[13]
  IC50: 0.132 µg/mL
  IC80: 0.366 µg/mL
  MPI: 100
[14]
  IC50: 0.419 µg/mL
  IC80: 2.19 µg/mL
  MPI: 100
[15]
  IC50: 0.023 µg/mL
  IC80: 0.178 µg/mL
  MPI: 100
[16]
  IC50: 1.41 µg/mL
  IC80: 8.21 µg/mL
  MPI: 99
[17]
  IC50: 0.477 µg/mL
  IC80: 1.99 µg/mL
  MPI: 100
[18]
  IC50: 0.259 µg/mL
  IC80: 0.693 µg/mL
  MPI: 100
[19]
  IC50: 0.076 µg/mL
  IC80: 0.231 µg/mL
  MPI: 100
[20]
  IC50: > 50 µg/mL
  IC80: > 50 µg/mL
  MPI: 17

## N49P9.1 (antibody)
[1]
  IC50: 0.052 µg/mL
  IC80: 0.196 µg/mL
  MPI: 100
[2]
  IC50: 0.251 µg/mL
  IC80: 1.23 µg/mL
  MPI: 100
[3]
  IC50: 0.037 µg/mL
  IC80: 0.12 µg/mL
  MPI: 99
[4]
  IC50: 0.382 µg/mL
  IC80: 1.45 µg/mL
  MPI: 100
[5]
  IC50: > 50 µg/mL
  IC80: > 50 µg/mL
  MPI: 6
[6]
  IC50: 0.027 µg/mL
  IC80: 0.075 µg/mL
  MPI: 100
[7]
  IC50: 0.635 µg/mL
  IC80: 2.02 µg/mL
  MPI: 100
[8]
  IC50: 1.3 µg/mL
  IC80: 4.39 µg/mL
  MPI: 100
[9]
  IC50: 0.107 µg/mL
  IC80: 0.709 µg/mL
  MPI: 100
[10]
  IC50: 2.13 µg/mL
  IC80: 10.7 µg/mL
  MPI: 98
[11]
  IC50: > 50 µg/mL
  IC80: > 50 µg/mL
  MPI: 15
[12]
  IC50: 0.064 µg/mL
  IC80: 0.231 µg/mL
  MPI: 100
[13]
  IC50: 0.343 µg/mL
  IC80: 1.5 µg/mL
  MPI: 100
[14]
  IC50: 0.781 µg/mL
  IC80: 3.54 µg/mL
  MPI: 100
[15]
  IC50: 0.026 µg/mL
  IC80: 0.182 µg/mL
  MPI: 100
[16]
  IC50: 1.65 µg/mL
  IC80: 9.44 µg/mL
  MPI: 99
[17]
  IC50: 0.561 µg/mL
  IC80: 2.96 µg/mL
  MPI: 100
[18]
  IC50: 0.271 µg/mL
  IC80: 0.971 µg/mL
  MPI: 100
[19]
  IC50: 0.135 µg/mL
  IC80: 0.448 µg/mL
  MPI: 100
[20]
  IC50: > 50 µg/mL
  IC80: > 50 µg/mL
  MPI: 17

## N49P19 (antibody)
[1]
  IC50: 0.394 µg/mL
  IC80: 1.3 µg/mL
  MPI: 100
[2]
  IC50: > 50 µg/mL
  IC80: > 50 µg/mL
  MPI: 30
[3]
  IC50: > 50 µg/mL
  IC80: > 50 µg/mL
  MPI: 44
[4]
  IC50: 0.204 µg/mL
  IC80: 0.895 µg/mL
  MPI: 100
[5]
  IC50: > 50 µg/mL
  IC80: > 50 µg/mL
  MPI: 17
[6]
  IC50: 0.182 µg/mL
  IC80: 0.601 µg/mL
  MPI: 100
[7]
  IC50: 0.95 µg/mL
  IC80: 4.7 µg/mL
  MPI: 100
[8]
  IC50: 0.954 µg/mL
  IC80: 3.3 µg/mL
  MPI: 100
[9]
  IC50: 2.56 µg/mL
  IC80: 13.4 µg/mL
  MPI: 98
[10]
  IC50: 14.5 µg/mL
  IC80: > 50 µg/mL
  MPI: 73
[11]
  IC50: > 50 µg/mL
  IC80: > 50 µg/mL
  MPI: 21
[12]
  IC50: 0.169 µg/mL
  IC80: 0.859 µg/mL
  MPI: 100
[13]
  IC50: 0.571 µg/mL
  IC80: 1.82 µg/mL
  MPI: 100
[14]
  IC50: 1.06 µg/mL
  IC80: 5.62 µg/mL
  MPI: 98
[15]
  IC50: > 50 µg/mL
  IC80: > 50 µg/mL
  MPI: 30
[16]
  IC50: 17.1 µg/mL
  IC80: > 50 µg/mL
  MPI: 69
[17]
  IC50: 1.85 µg/mL
  IC80: 14.8 µg/mL
  MPI: 98
[18]
  IC50: 1.27 µg/mL
  IC80: 4.28 µg/mL
  MPI: 100
[19]
  IC50: 0.4 µg/mL
  IC80: 1.33 µg/mL
  MPI: 100
[20]
  IC50: > 50 µg/mL
  IC80: > 50 µg/mL
  MPI: 30
